{"source": "paper PMC5558127", "about": "“Plant Glyoxylate/Succinic Semialdehyde Reductases: Comparative Biochemical Properties, Function during Chilling Stress, and Subcellular Localization” (Frontiers in Plant Science, 2017)", "molecules": {"B1": {"name": "MdGLYR1 (Malus domestica) (protein)", "chain": "MEVGFLGLGIMGKAMSMNLLRHGFKVTVWNRTLSKSHELVEHGASVAETPAEVVRKCKYTIAMLSDPSAALSVVFGKDGILEQICAGKSYVDMSTVDADTSSKINEAIKERGGYFLEAPVSGSKKPAEDGQLVILAAGEKALYEEVIPAFNVMGKKSFYLGQVGNGAKMKLVVNMIMGSMMNAFSEGLVLAGRSGLEPSVLLDVLDLGGIANPMFRLKGPTMIQGSHSPAFPLKHQQKDMRLALALGDETATSMPVAAAANEAFKKARSMGLGDLDFSAVYETVKTLEEPSRNSQLR"}, "B2": {"name": "MdGLYR2 (MdGLYR2Δ54) (Malus domestica) (protein)", "chain": "ASSKDELPARVGFLGLGIMGSPMAQNLIKSGCDVTVWNRTKSKCDPLISLGAKYKPSPEEVAASCDVTFAMLADPESAVAVALGKHGAANGMSSGKGYVDVSTVDVATSKLIGGNIKATGASFLEAPVSGSKKPAEDGQLIFLTAGDKSLYETVASLLDIMGKSRFYLGEVGNGAAMKLVVNMIMGSMMASFSEGLLLTEKIGLDPKVLVEVVSQGAISAPMYSMKGPSMIQSVYPTAFPLKHQQKDMRLALGLAESVSQSTPIAAAANELYKVAKSHGLSDEDFSAVIEALKPKLKH", "notes": "N-terminal targeting peptide removed (Δ54)"}}, "test_in_all_cases": "NADPH oxidation, absorbance microplate reader", "key": {"AtGLYR2 (AtGLYR2Δ58)": {"target": "T1, AtGLYR2 (AtGLYR2Δ58) (Arabidopsis thaliana, UniProt F4I907)", "T1 construct": "gene GLYR2", "T1 sequence (F4I907 59-358)": "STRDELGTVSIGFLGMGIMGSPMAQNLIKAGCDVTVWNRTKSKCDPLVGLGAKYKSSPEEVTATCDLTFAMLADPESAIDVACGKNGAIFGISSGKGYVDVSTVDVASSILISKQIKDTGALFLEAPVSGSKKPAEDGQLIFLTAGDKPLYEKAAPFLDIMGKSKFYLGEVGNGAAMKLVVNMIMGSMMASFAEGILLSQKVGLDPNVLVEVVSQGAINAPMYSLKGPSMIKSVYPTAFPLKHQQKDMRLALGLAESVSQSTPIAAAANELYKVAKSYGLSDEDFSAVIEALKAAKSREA", "type": "biochemical", "details": "50 μM NADPH fixed; pH optimum of the enzyme, MES/HEPES/TABS 50 mM each; room temperature", "source_text": "NADPH oxidation, absorbance microplate reader on AtGLYR2 (AtGLYR2Δ58)"}, "AtGLYR1": {"target": "T2, AtGLYR1 (Arabidopsis thaliana, UniProt Q9LSV0)", "T2 construct": "gene GLYR1", "T2 sequence (Q9LSV0 1-289)": "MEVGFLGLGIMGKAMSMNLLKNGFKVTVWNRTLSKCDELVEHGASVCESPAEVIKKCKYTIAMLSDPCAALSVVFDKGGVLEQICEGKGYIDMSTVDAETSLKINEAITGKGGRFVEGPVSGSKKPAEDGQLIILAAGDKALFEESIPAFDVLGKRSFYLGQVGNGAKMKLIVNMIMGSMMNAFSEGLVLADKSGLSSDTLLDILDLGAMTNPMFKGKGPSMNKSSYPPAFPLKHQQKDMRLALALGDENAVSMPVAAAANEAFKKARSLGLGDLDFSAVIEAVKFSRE", "type": "biochemical", "details": "50 μM NADPH fixed; pH optimum of the enzyme, MES/HEPES/TABS 50 mM each; room temperature", "source_text": "NADPH oxidation, absorbance microplate reader on AtGLYR1"}, "MdGLYR1": {"target": "MdGLYR1 (Malus domestica, UniProt A0A1C8M582)", "type": "biochemical", "details": "50 μM glyoxylate, 50 μM NADPH, NADP+ varied 0-0.5 mM"}, "MdGLYR2 (MdGLYR2Δ54)": {"target": "T3, MdGLYR2 (MdGLYR2Δ54) (Malus domestica, UniProt A0A1C8M593)", "T3 construct": "N-terminal targeting peptide removed (Δ54)", "type": "biochemical", "details": "50 μM glyoxylate, 50 μM NADPH, NADP+ varied 0-0.5 mM"}, "[1]": {"substrate": "NC(=O)C1=CN([C@@H]2O[C@H](COP(=O)(O)OP(=O)(O)OC[C@H]3O[C@@H](n4cnc5c(N)ncnc54)[C@H](OP(=O)(O)O)[C@@H]3O)[C@@H](O)[C@H]2O)C=CC1", "type": "biochemical, Malus domestica", "details": "50 μM glyoxylate fixed; pH optimum of the enzyme, MES/HEPES/TABS 50 mM each; room temperature; varied: cofactor", "source_text": "(§1) NADPH oxidation, absorbance microplate reader on MdGLYR1"}, "[2]": {"substrate": "O=CC(=O)O", "type": "biochemical, Malus domestica", "details": "50 μM NADPH fixed; pH optimum of the enzyme, MES/HEPES/TABS 50 mM each; room temperature", "source_text": "as §1"}, "[3]": {"substrate": "O=CCCC(=O)O", "type": "biochemical, Malus domestica", "details": "50 μM NADPH fixed; pH optimum of the enzyme, MES/HEPES/TABS 50 mM each; room temperature", "source_text": "as §1"}, "[4]": {"substrate": "NC(=O)C1=CN([C@@H]2O[C@H](COP(=O)(O)OP(=O)(O)OC[C@H]3O[C@@H](n4cnc5c(N)ncnc54)[C@H](OP(=O)(O)O)[C@@H]3O)[C@@H](O)[C@H]2O)C=CC1", "type": "biochemical, Malus domestica", "details": "50 μM glyoxylate fixed; pH optimum of the enzyme, MES/HEPES/TABS 50 mM each; room temperature; varied: cofactor", "source_text": "(§2) NADPH oxidation, absorbance microplate reader on MdGLYR2 (MdGLYR2Δ54)", "remark": "listed apart in the source"}, "[5]": {"substrate": "O=CC(=O)O", "type": "biochemical, Malus domestica", "details": "50 μM NADPH fixed; pH optimum of the enzyme, MES/HEPES/TABS 50 mM each; room temperature", "source_text": "as §2", "remark": "listed apart in the source"}, "[6]": {"substrate": "O=CCCC(=O)O", "type": "biochemical, Malus domestica", "details": "50 μM NADPH fixed; pH optimum of the enzyme, MES/HEPES/TABS 50 mM each; room temperature", "source_text": "as §2", "remark": "listed apart in the source"}}, "data": [{"molecule": "O=CC(=O)O", "note": "[glyoxylate]", "values": [{"measurement": "Km", "setting": "AtGLYR2 (AtGLYR2Δ58)", "result": "19.3 ± 4", "unit": "µM"}, {"measurement": "Km", "setting": "AtGLYR1", "result": "23.2 ± 3.2", "unit": "µM"}]}, {"molecule": "NC(=O)c1ccc[n+]([C@@H]2O[C@H](COP(=O)(O)OP(=O)(O)OC[C@H]3O[C@@H](n4cnc5c(N)ncnc54)[C@H](OP(=O)(O)O)[C@@H]3O)[C@@H](O)[C@H]2O)c1", "note": "[NADP+]", "values": [{"measurement": "% inhibition at NADP+/NADPH ratio of 5", "setting": "MdGLYR1", "result": "~ 50%"}, {"measurement": "% inhibition at NADP+/NADPH ratio of 5", "setting": "MdGLYR2 (MdGLYR2Δ54)", "result": "~ 50%"}]}, {"molecule": "B1", "values": [{"measurement": "Km", "setting": "[1]", "result": "3.3 ± 0.5", "unit": "µM"}, {"measurement": "Vmax", "setting": "[1]", "result": 39.4, "unit": "µmol/min/mg"}, {"measurement": "kcat", "setting": "[1]", "result": "22.3 ± 3.4", "unit": "s⁻¹"}, {"measurement": "kcat/Km", "setting": "[1]", "result": "6.8e+06 ± 278000", "unit": "M⁻¹ s⁻¹"}, {"measurement": "Km", "setting": "[2]", "result": "14.1 ± 2.1", "unit": "µM"}, {"measurement": "Vmax", "setting": "[2]", "result": 54.7, "unit": "µmol/min/mg"}, {"measurement": "kcat", "setting": "[2]", "result": "30.9 ± 3.8", "unit": "s⁻¹"}, {"measurement": "kcat/Km", "setting": "[2]", "result": "2.23e+06 ± 153000", "unit": "M⁻¹ s⁻¹"}, {"measurement": "Km", "setting": "[3]", "result": "1133 ± 273", "unit": "µM"}, {"measurement": "Vmax", "setting": "[3]", "result": 8.1, "unit": "µmol/min/mg"}, {"measurement": "kcat", "setting": "[3]", "result": "4.6 ± 1.6", "unit": "s⁻¹"}, {"measurement": "kcat/Km", "setting": "[3]", "result": "5100 ± 2300", "unit": "M⁻¹ s⁻¹"}]}, {"molecule": "B2", "values": [{"measurement": "Km", "setting": "[4]", "result": "1.8 ± 0.5", "unit": "µM"}, {"measurement": "Vmax", "setting": "[4]", "result": 28.2, "unit": "µmol/min/mg"}, {"measurement": "kcat", "setting": "[4]", "result": "15.7 ± 1.5", "unit": "s⁻¹"}, {"measurement": "kcat/Km", "setting": "[4]", "result": "1.01e+07 ± 2.28e+06", "unit": "M⁻¹ s⁻¹"}, {"measurement": "Km", "setting": "[5]", "result": "23.9 ± 1.9", "unit": "µM"}, {"measurement": "Vmax", "setting": "[5]", "result": 34.3, "unit": "µmol/min/mg"}, {"measurement": "kcat", "setting": "[5]", "result": "19.1 ± 2.1", "unit": "s⁻¹"}, {"measurement": "kcat/Km", "setting": "[5]", "result": "796000 ± 33000", "unit": "M⁻¹ s⁻¹"}, {"measurement": "Km", "setting": "[6]", "result": "6500 ± 327", "unit": "µM"}, {"measurement": "Vmax", "setting": "[6]", "result": 18.6, "unit": "µmol/min/mg"}, {"measurement": "kcat", "setting": "[6]", "result": "10.3 ± 1.9", "unit": "s⁻¹"}, {"measurement": "kcat/Km", "setting": "[6]", "result": "1600 ± 200", "unit": "M⁻¹ s⁻¹"}]}]}
